This passage reports CD8+ binding percentages to control tetramer results from patent US20040265325A1.

The target of this test is CD8+ T cells (T cell receptors) of CMV-seropositive human donors. Put plainly: flow cytometry, tetramer staining of CD8+ cells; background that was subtracted.

Several values for one entry are separate records, joined by “and”; a condition that tells them apart may be missing. Equal values may be shown once.

Take “HIV pol464-472 control tetramer (from UniProt P61769 21-119) (peptide-MHC)”: the CD8+ binding percentages to control tetramer is 0.07% and 0.1%.
